Measured values taken from patent US20130183306A1 (INTERNATIONAL DRUG DEVELOPMENT BIOTECH, published 2013).

Biological target: T1, human complement C1q (from natural human complement serum) (human, UniProt P02745 23-245; P02746 28-253; P02747 29-245)
T1 construct: Whole human complement serum was added to the coated MAb; also called complement human serum
Experiment: ELISA, MAb coated on the plate, natural human complement added, detection with anti-human C1q peroxidase conjugate
Experimental: The binding of human complement serum to MAbs was assessed by an ELISA binding assay. The 96-well plates (Nunc) were coated overnight at 4° C. with varying MAb concentrations. After washing, the plates were blocked with PBS-5% BSA for 1 h, and incubated for 1 h with 2.5 μl/well of natural human complement (Sigma). Then, 100 μl/well of a 1/500 dilution of sheep anti-human C1q peroxidase-conjugated Ab (Abd Serotec) added and incubated for 1h. The plates were developed with 100 μl per well of TMB substrate (Uptima Interchim). After H₂SO₄ addition, the OD was measured at 450 nm/630 nm using a MRX II microplate reader. Data represent mean+/−SD of two independent experiments.

T1 sequence (P02745 23-245 limits assumed, chain 1 of 3): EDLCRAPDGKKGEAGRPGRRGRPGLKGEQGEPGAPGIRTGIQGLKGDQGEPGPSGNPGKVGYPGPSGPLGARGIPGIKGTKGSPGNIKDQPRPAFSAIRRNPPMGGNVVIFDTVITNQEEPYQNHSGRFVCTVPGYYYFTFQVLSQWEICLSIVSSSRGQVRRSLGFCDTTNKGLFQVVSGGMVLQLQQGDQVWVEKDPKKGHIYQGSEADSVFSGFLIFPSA
T1 sequence (P02746 28-253 limits assumed, chain 2 of 3): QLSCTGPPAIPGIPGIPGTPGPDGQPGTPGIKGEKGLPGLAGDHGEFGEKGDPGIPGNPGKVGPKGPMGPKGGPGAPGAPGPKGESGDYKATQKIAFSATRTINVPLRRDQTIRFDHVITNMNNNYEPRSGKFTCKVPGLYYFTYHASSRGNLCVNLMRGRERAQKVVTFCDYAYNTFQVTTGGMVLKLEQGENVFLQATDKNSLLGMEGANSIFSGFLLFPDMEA
T1 sequence (P02747 29-245 limits assumed, chain 3 of 3): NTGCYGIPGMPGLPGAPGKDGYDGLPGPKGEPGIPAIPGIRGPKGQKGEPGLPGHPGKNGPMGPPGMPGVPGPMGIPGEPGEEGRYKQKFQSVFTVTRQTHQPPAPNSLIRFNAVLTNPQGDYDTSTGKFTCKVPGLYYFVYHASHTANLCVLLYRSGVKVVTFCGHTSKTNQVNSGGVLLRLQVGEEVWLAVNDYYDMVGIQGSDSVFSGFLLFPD

binding result: binds
B1: chR005-1 Fc24 (antibody, human IgG1, name in EU numbering)
heavy: QVQLQQSGAELVRPGSSVKISCKASGYAFSSYWVNWMKQRPGQGLEWIGQIYPGDGDTNYNGKFKGRATVTADKSSSTSYMQFSSLTSEDSAVYFCARSITTVVGCAMDYWGQGTSVTVSSASTKGPSVFPLAPSSKSTSGGTAALGCLVKDYFPEPVTVSWNSGALTSGVHTFPAVLQSSGLYSLSSVVTVPSSSLGTQTYICNVNHKPSNTKVDKKVEPKSCDKTHTCPPCPAPELLGGPSVFLLPPKPKDTLMISRTPEVTCVVVDVSHEDPEVKFNWYVDGVEVHNAKTKPPEEQYNSTLRVVSLLTVLHQDWLNGKEYKCKVSNAALPAPIAKTISKAKGQPREPQVYTLPPSRDELTKNQVSLTCLVKGFYPSDIAVEWESNGQPENNYKTTPLVLDSDGSFFLYSKLTVDKSRWQQGNVFSCSVMHEALHNHYTQKSLSLSPGK
light: DIQMTQSSAYLSVSLGGRVTITCKASDHINNWLAWYQHKPGNAPRLLISGATTLETGVPSRFSGSGSGKDYTLSITSLQTEDVATYYCQQSWNTPWTFGGGTK
notes: also called chR005-1 MAb Fc24 optimized variant; not shown: human light chain constant region
